Results reported in patent US20170307628A1.

Molecular target: recombinant human IL-17A (human) (UniProt Q16552)
Assay: cell-based or functional assay

Chain of recombinant human IL-17A (human) (Q16552 20-155 limits assumed): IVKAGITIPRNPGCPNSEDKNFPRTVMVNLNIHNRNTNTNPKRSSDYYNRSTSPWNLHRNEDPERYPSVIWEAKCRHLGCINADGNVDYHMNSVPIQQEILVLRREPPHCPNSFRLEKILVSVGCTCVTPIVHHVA

## human IL-17A receptor-Fc chimera (from UniProt Q96F46 33-320) (Fc fusion)
  inhibition of IL-17A induced IL-6 production in NHDF cells, IC50: 1 nM
